The target of series [1] is EphA2 WT tagged at the C-terminus with mTURQ or EYFP (UniProt P29317).
The next series deals with dimer (4). Description: ITC.
The next series addresses CGA-WLA-YRPK dimer (5). Description: ITC. (In general: Isothermal titration calorimetry measures the heat released or taken up as one component is titrated into another.)
The next series concerns the target CGA-WLA-YR dimer (N-ter). Briefly: ITC.
The series “FRET or BRET” deals with the molecule itself. Briefly: FRET or BRET. For orientation: Bioluminescence resonance energy transfer reports proximity on the nanometre scale.

As for “ephrinA1-Fc (ephrinA1 extracellular region fused to the dimeric Fc portion of an antibody) (Fc fusion)”, in series [1], the EC50 of EphA2 autophosphorylation on Y588, endogenous EphA2 in PC3 cells, 15 min was 3.8 nM. Regarding “human EphA2 LBD (residues 28–200) (from UniProt P29317 28-200) (domain or fragment)”, in the series with dimer (4), the Kd – broadly, the free concentration of one partner at which half of the binding sites on the other are occupied at equilibrium, for simple one-to-one binding – stood at 104 nM and the stoichiometry N (EphA2 LBD per peptide) was found to be 2. This molecule also yielded a dissociation constant (Kd) with CGA-WLA-YRPK dimer (5) of 21 nM. On to “human EphA2 ligand-binding domain (residues 28-200) (from UniProt P29317 28-200) (domain or fragment)”, for which the stoichiometry N (commonly the number of molecules, sites or subunits per partner or assembly) with CGA-WLA-YR dimer (N-ter) stood at 2.

B1: EphA2 L223R/L254R/V255R tagged at the C-terminus with mTURQ or EYFP (receptor)
chain: AQGKEVVLLDFAAAGGELGWLTHPYGKGWDLMQNIMNDMPIYMYSVCNVMSGDQDNWLRTNWVYRGEAERIFIELKFTVRDCNSFPGGASSCKETFNLYYAESDLDYGTNFQKRLFTKIDTIAPDEITVSSDFEARHVKLNVEERSVGPLTRKGFYLAFQDIGACVALLSVRVYYKKCPELLQGLAHFPETIAGSDAPSRATVAGTCVDHAVVPPGGEEPRMHCAVDGEWRRPIGQCLCQAGYEKVEDACQACSPGFFKFEASESPCLECPEHTLPSPEGATSCECEEGFFRAPQDPASMPCTRPPSAPHYLTAVGMGAKVELRWTPPQDSGGREDIVYSVTCEQCWPESGECGPCEASVRYSEPPHGLTRTSVTVSDLEPHMNYTFTVEARNGVSGLVTSRSFRTASVSINQTEPPKVRLEGRSTTSLSVSWSIPPPQQSRVWKYEVTYRKKGDSNSYNVRRTEGFSVTLDDLAPDTTYLVQVQALTQEGQGAGSKVHEFQTLSPEGSGNLAVIGGVAVGVVLLLVLAGVGFFIHRRRKNQRARQSPEDVYFSKSEQLKPLKTYVDPHTYEDPNQAVLKFTTEIHPSCVTRQKVIGAGEFGEVYKGMLKTSSGKKEVPVAIKTLKAGYTEKQRVDFLGEAGIMGQFSHHNIIRLEGVISKYKPMMIITEYMENGALDKFLREKDGEFSVLQLVGMLRGIAAGMKYLANMNYVHRDLAARNILVNSNLVCKVSDFGLSRVLEDDPEATYTTSGGKIPIRWTAPEAISYRKFTSASDVWSFGIVMWEVMTYGERPYWELSNHEVMKAINDGFRLPTPMDCPSAIYQLMMQCWQQERARRPKFADIVSILDKLIRAPDSLKTLADFDPRVSIRLPSTSGSEGVPFRTVSEWLESIKMQQYTEHFMAAGYTAIEKVVQMTNDDIKRIGVRLPGHQKRIAYSLLGLKDQVNTVGIPI
In the case of B1, the “stoichiometry N” value in “FRET or BRET” was 2.
